# Reference: the DeepSol protein solubility set
# Experiment: soluble on expression in E. coli; label from the status in PepcDB or PDB records
row,Sequence,soluble on expression in E. coli
1,MGSDKIHHHHHHMDRLIYTAMTGLKHIMEQQSTTANNLANATTTGFRAQIDSFRAVPVLSDGLPTRAFVVDATVGTNFNSGVINTTGRELDLAIRDQGWFAVQRPDGTEAYTRNGNFKLNENGVLQTQDGMMVLGDNGPITIPLEAKVAFANDGMVSAVATNVVPLFTNMIGRLKLVNPGDDNLVRGPDGLFETRNREPVPASANVTIVSGALEGSNVNVVEEMVNMISQARQFDLQTKLIQNAENNATKAGQIFSLS,not soluble
2,MADWVTGKVTKVQNWTDALFSLTVHAPVLPFTAGQFTKLGLEIDGERVQRAYSYVNSPDNPDLEFYLVTVPDGKLSPRLAALKPGDEVQVVSEAAGFFVLDEVPHCETLWMLATGTAIGPYLSILRLGKDLDRFKNLVLVHAARYAADLSYLPLMQELEKRYEGKLRIQTVVSRETAAGSLTGRIPALIESGELESTIGLPMNKETSHVMLCGNPQMVRDTQQLLKETRQMTKHLRRRPGHMTAEHYW,soluble
3,MTKQQIEKLADLLPPFAATLYLDMIPEFQEGYASYVYQTPKQDIQKRRIKQLTKNFERLLDTPSFYVMPVTRKTAEQLLADKGLAYHLLSTVAANQVFAAAVNEDQMLFQVLRNGARVAFVILQEKGEFLEMTLGILETVTENEVPAAIVEAVQTYLLADMQEKLPSLSIMVSQESSKLFYQEQGFVLLAKGCKPGNENDSDVCQLVKYFSKP,not soluble
4,MFRVQTLNQIAEKGLQVFTEERYEVGDRINHPDGILLRSYSLHQEEFSKDLKAIARAGAGVNNIPVERCTEKGIVVFNTPGANANAVKELIIASLIMSSRNIINGVSWTKNLEGEEVPQLVESGKKQFVGSEIAGKRLGVIGLGAIGALVANDALALGMDVIGYDPYISVETAWRLSTHVQRAFSLDEIFATCDYITLHIPLTNQTKGIIGEHAVEKMKRGMRLFNFSRGELVDEKVLQKALEEDIITHYVTDFPNENVIKMKNVTATPHLGASTSESEENCAVMAARQLREYLETGNIRNSVNYPNVELPYIGKKRITIMHQNVPNMVGQITGCLAEHHINIADMTNRSKHSWAYTMIDIDNGIDDIIKENIVENISKITGVVAVRMIV,not soluble
5,MGSDKIHHHHHHMKTITTWQNNIQIVKDATNIVEISKGFSPDKKYIVTTIDEEKYLLRIGDIQEYERRKIEFQILNEMVKRNVQAQRPIEIGILEEEGVCYSIFSYLEGEDAKKLLPTYSPKKQYEIGIEAGKDLAKMHTYEAPNDTLPWYERAMKKHQKYVEAYKTCGIKIKNDDKIIKFIDENEMYLQNRPNQFQHDDFHLENIIVRDGKYVGVVDFNGYDWGDPLHDFVKIALFARDISIPYSIGQIEGYFNGRIPEEFWKLYAVYVGMTVFSSVVWTLRAAPHMLDDTLERLTVVLEDHKDFELLKPIWFQPEKIDIKK,not soluble
6,LDPEEIRKRLEHTERQFRNRRKILIRGLPGDVTNQEVHDLLSDYELKYCFVDKYKGTAFVTLLNGEQAEAAINAFHQSRLRERELSVQLQPTDALLCVANLPPSLTQQQFEELVRPFGSLERCFLVYSERTGQSKGYGFAEYMKKDSAARAKSDLLGKPLGPRTLYVHWTDAGQLTPALLHSRCLCVDRLPPGFNDVDALCRALSAVHSPTFCQLACGQDGQLKGFAVLEYETAEMAEEAQQQADGLSLGGSHLRVSFCAPGPPGRSMLAALIAAQATALNRG,soluble
7,MSLDIADVAKRTGVPASTLRYYEKKGLLKSLAGRGQRRQFAADVADRLALIALGQAAGFSLDEVGAMLVDLQVDRQMLMAKADELDARIKRLQAMSKGLRHAAQCPEKDHLACPKFQQLMKLSAAGALGEKQARTKAFVTDEGHHHHHH,soluble
8,MGHHHHHHSHMEFLTFLKSDYTHANLVDKALQLLKERILKGDTLAYFLRGQLYFEEGWYEEALEQFEEIKEKDHQATYQLGVMYYDGLGTTLDAEKGVDYMKKILDSPCPKARHLKFAAAYNLGRAYYEGKGVKRSNEEAERLWLIAADNGNPKASVKAQSMLGLYYSTKEPKELEKAFYWHSEACGNGNLESQGALGLMYLYGQGIRQDTEAALQCLREAAERGNVYAQGNLVEYYYKMKFFTKCVAFSKRIADYDEVHDIPMIAQVTDCLPEFIGRGMAMASFYHARCLQLGLGITRDETTAKHYYSKACRLNPALADELHSLLIRQRI,not soluble
9,MAGDPMEAIMKKLIGIATAAVFGLGIFTSSANAETVVTTDVLNVRENPTTESKVVGKLLNGNKIDVQNTENGWSKITLDGKDAFVSAEFTKSIYYVTANVLNVRAEANTNSEVLGKLKKDDVIETTNQVQNEWLQFEYNGKTAYVHVPFLTGTAPVIEKQETTAPAKAAAPAKAQAPVAQAKPAAKPAVKAAETNTPSGGRELTVVATAYTAHPSENGGTYGGRVLTAMGHDLTANPNMKMIAVDPKVIPLGSKVWVEGYGEAIAGDTGGAIKGTRIDILLGSDSAAQKWGRKTVKVKILKLEHHHHHH,not soluble
10,AHHHHHHGSGSSRTFRTSWADLGNLAKSIPPHHHLNPFEGKWNKKLSKKAIIMWQINVNDNRKFLSDC,not soluble
11,MEQPTRPGFATRRRTQLFDALVDLILVEGFAHLTLDEIANRLRCSKSTLYTLAGSKEQLVRAATVHFFRRATDDVESHIEPIAGARERITAYLSAVGTALSAASDQFMADLDAFPPAREVYERNTQFAAGRVQELITEGVAGGDFRDVHAAFAADLAATMMVRIQQRGVRDSTGLDDAHAYAELAAILTGGISA,not soluble
12,MNDIPVQHNKNRCPSHPGDLLAEIIPATGKTKLEIAQMLGISRQHLYAILRAKKPISPSVSARLGKLFGDGAAVWLRMQAAYDAWHAEHETDVSQIPTLHVV,not soluble
13,MILHPRPSPIAAAMYQLRDIGVDAIILHGPSGCCFRTARLLEIDGIRVFTSAMGENDFIFGAMDKLRDVIAEVLEYLKKETPKSEKYKIGIVGTCASMIIGEDLESLIDDFDDIIIPVDIHSGLVDNTVGAIRAMDGALNAGLIDYSEYLEHHHHHH,not soluble
14,MGSDKIHHHHHHMTLVASSCTDVLDQMPTTEDTSKEVYADAANYKKVLAKIYASYVLAGQGQGGDNGDLKSINKQDFSRGYFNLQEAATDEVANTWLSGNNLSDLTYISWDAKDSWVSDSYYWLFFNIALCNEFLRHCSDEEIARFSEAEQTEIRTFRSEARFMRSFSYWMVLDLYRQGPKVDENTPVIGYIPEAYDGIGMFDFIESELKELVAEGVSSALPATNEYGRASKPVAWALLARLYLNSAIYRGNVDTKYYTECITACKQVISNPAFYLEPEYAKLFNADNHKRTHEILFAMVCDATTSVTWGGGTYIICGSCGNSSTQDPAKYGLSNGWGMFRARGEMTAKFGDIATTKDSRAMFYTDGQAQFFTGAIDNQAEGYFFEKFSNLTDEGVAASNSAATGCSTDYPLLRLADIYLMAAEAQLRGGTGLSRAEALELVNQVRLRAYNQDESGKISDSDFTLDFILDERARELYLESVRRTDLIRFNKFVSADYIWQWKGGVLDGRAVNKKYNIYPIPDTDLTANPNLHNPLY,not soluble
15,MSLDNQLRPTLHYQAQNPHRRVLVTGATGYIGGRLITELLAAGFQVRATSRKKTSLQRFDWYEDVEAVEADLTDATELDTLFKDVDVVYYLVHSMGGKNVDFEEQEQRTAENVIQAADQAGIKQIVYLSGLHPRNRKIEELSKHMRSREKVAQILLAGQTPALILRAATIIGSGSASFEIIRHLTERLPRMIAPQWITNQIEPLAIRDVLHYLISAADLKDPVNRSCDIGCGKSYEFADLLRIYADVRGLKRHVNSVPLNLPMDKLSGLWISLVTPVPFQLSFPLAQSMAEDAVTEEHSIKDIISDPPDGFIEYREAVELALAAEFDRGVPTSWDRSWTVQQPWAGQPTDPEWAGKAVYEDVRTEDTDLRAAQVWPIIEGLGGVNGWYSAPLLWRLRGIADRLIGGPGLGGRRDPRHLKLGDRIDWWRVTEIDPPHRLVLTAEMKVDGGAWLILEVADKENGGCTYTQRAIFEPKGEGHHHHHH,soluble
16,MGSDKIHHHHHHMIRVLLANPRGFCAGVDRAIEIVERALAMYGAPIYVRHEVVHNRFVVEDLEKKGAVFVENLEEVPEGSMLIFSAHGVSHEVRREAAARKLQIFDATCPLVTKVHVEVAKMDKEGKEIVMIGHQGHPEVEGTMGQIAKSKGTMYLVETAEDVARLQVKNESNLAYVTQTTLSVDDAARVIEALKQRFPKIIGPKKDDICYATQNRQDAVKKLVKLCDLVVVVGSPNSSNSNRLCEVARNENVEAYMVDQAEQLQESWLTNKRCIGITAGASAPEILVQQVLERLEQIAAKQSNQGVIIEELSGVLESVTFPLPKAEPVSFNKYI,not soluble
17,MYRKGAQAERELIKLLEKHGFAVVRSAGSKKVDLVAGNGKKYLCIEVKVTKKDHLYVGKRDMGRLIEFSRRFGGIPVLAVKFLNVGWRFIEVSPKIEKFVFTPSSGVSLEVLLGIQKTLEGKS,soluble
18,MLSVMRMQIPKTHPRYESLMKREKIIEALDKGILAKAGLIAHGRGETFDYLIGEKTAPIALEAIKAAAALLILAENPVISVNGNTVALAIDEVVELAKELNGKIEVNLFYRTKERELAIKRAFEEKFKDDIETGKIKILGIDDANKQIPNLDSLRGKVSEEGIFTADVVLVPLEDGDRAEALVNMGKKVIAIDLNPLSRTARKSTITIVDELTRAMPLLIKYVKEFKNKDREELLKIVEDFDNKKNLKDMIDYIAERLKNLSLEHHHHHH,soluble
19,MWRTEMRKFLVVLDDSRECLNAMRFAAMRAAHTGGGVAILSIIPPDEFNHWIGVGEVMREEARERIHAHFEVFAKWMRDKQGVEPELVIREGEAVPEIIAHVQEDPEIGVLVLGAGTDKKGPGPLVSQLSRSSGSLPIPITIVPGDLSKEKLEAIT,not soluble
20,AAVLTQDKNTPTYGPANGKVTVIEFFDYQCVYCSRLAPVMEQVIKAHPQTRFAFKEWPIFGGRWESSLEAAKTGLQIYQQKGADAYLAYHNGIYATGHNEGKLTTADIQQQAKKAGFDAKKAADVEPVLQSINDLAQEIGLSGTPGVIVMPTTGATEASITVFPGLADKASLEAAIKKAGG,not soluble
21,MSYVAEKKKIANVLSNRYASAELTELWSPEAKILLERQLWIAVMKAQKNLGVDIPTEAISAYEAVIDRIDLDSIAQREKITRHDVKARIEEFNALAGYEHIHKGMTSRDLTENVEQLQIYRSLEMMRNKSVSVAAAIAQHAAQYQSLVMAGRSHNVAAQATTLGKRFASAAEEILVAIDRVEDLLSRYPLRGIKGPMGTAQDMLDLVGGDESKLAALETQIADHLGIARVFDSVGQVYPRSLDFDAVSALVQLGAGPSSLAHTIRLMAGNETVTEGFKEGQVGSSAMPHKMNARSCERVGGLQVILRGYLTMVADLSGQQWNEGDVFCSVIRRVALPDAFFALDGMYETFLTVLAEFGAFPAMIDRELERYLPFLATTRILMAAVRVGVGRETAHEVIKENAVAVALNMRENGGEQDLIDRLAADERLPMTREQLDEALADRHAFIGAAESQVARVVDRVNDLVRRYPAAAQYTPGDIL,not soluble
22,MAFKFKTFAAVGALIGSLALAGCGQDEKDPNHIKVGVIVGAEQQVAEVAQKVAKEKYGLDVELVTFNDYVLPNEALSKGDIDANAFQHKPYLDQQIKDRGYKLVSVGKTFVYPIAGYSKKIKSLDELKDGSQVAVPNDPTNLGRSLLLLQKVGLIKLKDGVGLLPTSLDIVENPKNLKIVELEAPQLPRSLDDAQIALAVINTTYASQIGLTPAKDGIFVEDKDSPYVNLIVTREDNKDAENVKKFVQAYQSDEVYEAANKVFNGGAVKGWLEHHHHHH,soluble
23,MGSDKIHHHHHHMKVLVFDVSAPYALFRRPYTTTSSYTLPFPPRTTLLGLVGCVLGYSTPERLDSAKVAVQIKNPLKFLRTGTNFVETKKDKKASKRTRISLQLLKNPAYRVFFSWEDEDFERLKNLLEHSETIFTPYLGVASFIARLNYVGKYEATRVADFPCEVHTVVPNTVKLLPEPSHYLIFERVTRKMDKERNMLESAVYIFKRDLSPVKVEGGEVWRVGEQNIVWM,not soluble
